These results are taken from publication PMC3503981.

The experiment concerns the target PfUDN, N-terminal fragment of Plasmodium falciparum UvrD helicase (P. falciparum 3D7).

Regarding “PfMLH (P. falciparum MutL homologue) (natural protein)”, the stimulation of the unwinding (helicase) activity of PfUDN (10 nM) on the 3′ to 5′ direction-specific substrate 3B by PfMLH (8 and 16 nM) pre-incubated with the substrate, against PfUDN alone lay in the range of 22 to 36%.
